The values below come from paper PMC9910466 (Proceedings of the National Academy of Sciences of the …, 2022).

Assay [1] concerns the target Ufd1^ΔSIM/Npl4 dimer, biotinylated (S. cerevisiae) (UniProt P53044). Put plainly: BLI; biotinylated Ufd1/Npl4 dimer (WT Ufd1 or Ufd1^ΔSIM) immobilised on streptavidin biosensors, serial dilution of substrate; 30 °C; PBS, 0.02% Tween-20, 0.1% BSA, 0.1 mM TCEP; 2:1 heterogeneous ligand fit. (BLI is a label-free optical method that tracks binding on a fibre tip over time.)

The target of a further assay is T1, Npl4 (S. cerevisiae) (S. cerevisiae, UniProt P33755 1-580).
T1 construct: Npl4, S. cerevisiae, codon-optimized gene; source: E. coli BL21-CodonPlus (DE3)-RIL, purified with Ufd1 (Ni-NTA, TEV protease, SEC); not shown: His tag (from the Ni-NTA purification)
T1 sequence: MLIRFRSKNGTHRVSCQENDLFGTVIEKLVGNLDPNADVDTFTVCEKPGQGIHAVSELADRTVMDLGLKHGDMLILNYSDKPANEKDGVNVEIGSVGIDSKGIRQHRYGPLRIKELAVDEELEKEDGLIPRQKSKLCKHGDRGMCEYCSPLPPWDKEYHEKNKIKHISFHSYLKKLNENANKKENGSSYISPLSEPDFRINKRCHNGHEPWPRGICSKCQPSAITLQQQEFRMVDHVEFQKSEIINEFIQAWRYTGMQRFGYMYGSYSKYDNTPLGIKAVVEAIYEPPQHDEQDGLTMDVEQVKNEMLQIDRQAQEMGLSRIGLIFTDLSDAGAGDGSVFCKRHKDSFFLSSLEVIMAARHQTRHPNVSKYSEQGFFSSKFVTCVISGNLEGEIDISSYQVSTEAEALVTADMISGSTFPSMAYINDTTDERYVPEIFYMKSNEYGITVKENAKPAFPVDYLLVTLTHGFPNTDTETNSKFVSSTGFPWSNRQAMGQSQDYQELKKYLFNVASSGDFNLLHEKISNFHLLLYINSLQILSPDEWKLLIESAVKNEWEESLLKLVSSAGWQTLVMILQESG
Put plainly: cryo-EM structure; 2 μM Ufd1/Npl4, 2 μM Cdc48, 2.5 μM 1S1U^H-mEOS, on ice with 1 mM ATP in 20 mM HEPES pH 8.0, 150 mM NaCl, 0.1 mM TCEP, 5 mM MgCl2; single-particle. The following applies: both partners purified.

As to “1S1U-mEOS substrate without polyubiquitin chain (one SUMO and one ubiquitin fused end to end with the N-terminus of mEOS) (from UniProt Q12306 1-101; P0CG63 1-76)”, in assay [1], the fold binding defect against WT Ufd1/Npl4 is 100 fold.

B1: Ufd1 (S. cerevisiae) (natural protein)
chain: MFSGFSSFGGGNGFVNMPQTFEEFFRCYPIAMMNDRIRKDDANFGGKIFLPPSALSKLSMLNIRYPMLFKLTANETGRVTHGGVLEFIAEEGRVYLPQWMMETLGIQPGSLLQISSTDVPLGQFVKLEPQSVDFLDISDPKAVLENVLRNFSTLTVDDVIEISYNGKTFKIKILEVKPESSSKSICVIETDLVTDFAPPVGYVEPDYKALKAQQDKEKKNSFGKGQVLDPSVLGQGSMSTRIDYAGIANSSRNKLSKFVGQGQNISGKAPKAEPKQDIKDMKITFDGEPAKLDLPEGQLFFGFPMVLPKEDEESAAGSKSSEQNFQGQGISLRKSNKRKTKSDHDSSKSKAPKSPEVIEID
notes: Ufd1, S. cerevisiae, codon-optimized gene; residues 228 to 256 and 281 to 311 resolved in the maps; source: E. coli BL21-CodonPlus (DE3)-RIL, purified with Npl4 (Ni-NTA, TEV protease, SEC); not shown: His tag (from the Ni-NTA purification)
For the molecule B1, in the assay with Npl4 (S. cerevisiae), the binding result is on record as “binds”.
